Test results as given in article PMC4034419, “DNA polymerase hybrids derived from the family-B enzymes of Pyrococcus furiosus and Thermococcus kodakarensis: improving performance in the polymerase chain reaction”.
Substitutions are numbered along the chain they refer to.

Experiments:
Experiment in all cases: fluorescence anisotropy; 20 mM Tris-HCl pH 8.5, 10 mM KCl, 10 mM (NH4)2SO4 (ionic strength 40); 10 nM Hex primer-template; rest of buffer and temperature not in material
Details in all cases: protein: recombinant; label: 5'-hexachlorofluorescein on primer (strand 1); 5' overhang 20 nt on template (strand 2)
[1] = biological target: T1, Tkod-Pol wild type (family-B DNA polymerase) (Thermococcus kodakarensis, UniProt D0VWU9 1-774)
T1 sequence: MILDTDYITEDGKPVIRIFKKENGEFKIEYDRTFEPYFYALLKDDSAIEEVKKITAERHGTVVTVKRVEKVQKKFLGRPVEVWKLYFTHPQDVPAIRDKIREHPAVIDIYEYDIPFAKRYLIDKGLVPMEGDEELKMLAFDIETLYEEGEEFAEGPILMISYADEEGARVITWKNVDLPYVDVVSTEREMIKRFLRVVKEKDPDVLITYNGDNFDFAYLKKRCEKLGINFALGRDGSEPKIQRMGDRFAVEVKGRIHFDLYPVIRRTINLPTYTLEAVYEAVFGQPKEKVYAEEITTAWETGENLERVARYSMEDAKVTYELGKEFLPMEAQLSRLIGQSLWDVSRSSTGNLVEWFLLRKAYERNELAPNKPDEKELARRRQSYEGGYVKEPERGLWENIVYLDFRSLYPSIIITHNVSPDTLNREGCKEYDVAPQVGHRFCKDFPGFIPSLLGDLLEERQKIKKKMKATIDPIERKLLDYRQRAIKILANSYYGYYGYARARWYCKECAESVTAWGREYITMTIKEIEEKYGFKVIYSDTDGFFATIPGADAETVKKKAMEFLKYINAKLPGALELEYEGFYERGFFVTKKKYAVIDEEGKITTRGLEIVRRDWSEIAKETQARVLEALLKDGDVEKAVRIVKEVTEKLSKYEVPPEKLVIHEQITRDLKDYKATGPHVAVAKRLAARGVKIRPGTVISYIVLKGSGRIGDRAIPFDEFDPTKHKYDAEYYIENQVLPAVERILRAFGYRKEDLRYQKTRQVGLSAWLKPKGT

[2] = biological target: T2, Pfu-TkodTS L381R/K502R (Pyrococcus furiosus / Thermococcus …, UniProt P61875 1-590+D0VWU9:590-774, L381R;K502R;internal_change)
T2 sequence: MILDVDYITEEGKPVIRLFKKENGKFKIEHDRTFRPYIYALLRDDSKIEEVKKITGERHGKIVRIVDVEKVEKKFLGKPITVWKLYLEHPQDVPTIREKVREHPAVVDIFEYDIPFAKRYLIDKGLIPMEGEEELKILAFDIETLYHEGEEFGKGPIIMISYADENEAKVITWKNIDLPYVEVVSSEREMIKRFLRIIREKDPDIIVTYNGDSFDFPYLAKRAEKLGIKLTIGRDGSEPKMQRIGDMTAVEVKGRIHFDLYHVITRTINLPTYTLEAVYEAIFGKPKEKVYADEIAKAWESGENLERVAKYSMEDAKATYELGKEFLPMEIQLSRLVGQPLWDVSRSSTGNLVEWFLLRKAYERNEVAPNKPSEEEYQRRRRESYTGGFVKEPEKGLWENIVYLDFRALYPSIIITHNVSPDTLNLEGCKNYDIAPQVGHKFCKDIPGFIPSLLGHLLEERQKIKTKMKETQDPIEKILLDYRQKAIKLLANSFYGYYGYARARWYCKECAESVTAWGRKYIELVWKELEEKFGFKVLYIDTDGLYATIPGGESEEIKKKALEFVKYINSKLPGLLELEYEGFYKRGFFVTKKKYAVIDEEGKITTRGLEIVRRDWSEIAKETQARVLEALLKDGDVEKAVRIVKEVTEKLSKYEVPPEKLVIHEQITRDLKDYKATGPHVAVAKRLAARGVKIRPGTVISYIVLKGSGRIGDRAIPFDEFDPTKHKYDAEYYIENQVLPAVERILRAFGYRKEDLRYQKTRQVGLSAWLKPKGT

[3] = biological target: T3, Pfu-Pol L381R/K502R (Pyrococcus furiosus, UniProt P61875 1-775, L381R;K502R)
T3 sequence: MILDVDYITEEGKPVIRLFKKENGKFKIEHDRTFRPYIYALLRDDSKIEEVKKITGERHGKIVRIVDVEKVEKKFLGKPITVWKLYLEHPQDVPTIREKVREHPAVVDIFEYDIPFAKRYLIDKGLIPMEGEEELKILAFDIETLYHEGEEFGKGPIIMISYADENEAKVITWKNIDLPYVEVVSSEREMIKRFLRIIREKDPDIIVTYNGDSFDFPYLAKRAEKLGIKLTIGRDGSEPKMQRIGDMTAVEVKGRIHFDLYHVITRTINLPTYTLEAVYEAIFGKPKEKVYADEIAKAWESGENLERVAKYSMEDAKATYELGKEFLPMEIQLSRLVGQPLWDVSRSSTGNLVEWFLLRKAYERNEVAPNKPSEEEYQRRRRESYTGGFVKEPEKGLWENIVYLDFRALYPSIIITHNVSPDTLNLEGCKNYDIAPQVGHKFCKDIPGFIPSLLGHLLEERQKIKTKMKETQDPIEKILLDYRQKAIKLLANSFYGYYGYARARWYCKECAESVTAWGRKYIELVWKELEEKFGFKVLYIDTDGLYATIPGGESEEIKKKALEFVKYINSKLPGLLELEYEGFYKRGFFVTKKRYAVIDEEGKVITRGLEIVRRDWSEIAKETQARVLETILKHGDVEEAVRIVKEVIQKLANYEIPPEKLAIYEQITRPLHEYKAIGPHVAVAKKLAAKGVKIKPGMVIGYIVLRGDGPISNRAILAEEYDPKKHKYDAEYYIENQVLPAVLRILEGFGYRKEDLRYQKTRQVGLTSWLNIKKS

[4] = biological target: T4, Pfu-Pol wild type (family-B DNA polymerase) (Pyrococcus furiosus, UniProt P61875 1-775)
T4 sequence: T3 sequence with R381L, R502K

[5] = biological target: T5, Pfu-TkodTS (thumb swap) (Pyrococcus furiosus / Thermococcus …, UniProt P61875 1-590+D0VWU9:590-774, internal_change)
T5 sequence: T2 sequence with R381L, R502K

[6] = biological target: T6, Pfu-Pol M247R/L381R (Pyrococcus furiosus, UniProt P61875 1-775, M247R;L381R)
T6 sequence: T3 sequence with M247R, R502K

B1: Hex primer-template (24/44) (dsDNA)
DNA 1: GGGGATCCTCTAGAGTCGACCTGC
DNA 2: GGAGACAAGCTTGCTTGCCAGCAGGTCGACTCTAGAGGATCCCC
Binder B1 has a Kd [1] of 276 ± 18 nM, a Kd [2] of 50 ± 7 nM and a Kd [3] of 107 ± 13 nM. It also gave a Kd [4] of 251 ± 23 nM, a Kd [5] of 95 ± 7 nM and a Kd [6] of 70 ± 9 nM.
